Results from article PMC8813930, “The toposiomerase IIIalpha-RMI1-RMI2 complex orients human Bloom’s syndrome helicase for efficient disruption of D-loops”.

Biological target: TOPOIIIalpha (TRR complex);RMI1 (TRR complex);RMI2 (TRR complex) (Homo sapiens;Homo sapiens;Homo sapiens, UniProt Q13472;Q9H9A7;Q96E14 1-1001;1-625;1-147, ||)
Assay: fluorescence anisotropy; 5 mM MgCl2; 50 mM Tris-HCl pH 7.5, 50 mM NaCl, 1 mM DTT, 5 mM MgCl2, 50 µg/mL BSA, 25 °C; 10 nM labeled DNA in direct titrations
Conditions: protein: recombinant;recombinant;recombinant; tags: His;;; copies: 1;1;1; label: 3'-fluorescein; single strand

TOPOIIIalpha (TRR complex);RMI1 (TRR complex);RMI2 (TRR complex), sequence (Q13472 whole entry, chain 1 of 3): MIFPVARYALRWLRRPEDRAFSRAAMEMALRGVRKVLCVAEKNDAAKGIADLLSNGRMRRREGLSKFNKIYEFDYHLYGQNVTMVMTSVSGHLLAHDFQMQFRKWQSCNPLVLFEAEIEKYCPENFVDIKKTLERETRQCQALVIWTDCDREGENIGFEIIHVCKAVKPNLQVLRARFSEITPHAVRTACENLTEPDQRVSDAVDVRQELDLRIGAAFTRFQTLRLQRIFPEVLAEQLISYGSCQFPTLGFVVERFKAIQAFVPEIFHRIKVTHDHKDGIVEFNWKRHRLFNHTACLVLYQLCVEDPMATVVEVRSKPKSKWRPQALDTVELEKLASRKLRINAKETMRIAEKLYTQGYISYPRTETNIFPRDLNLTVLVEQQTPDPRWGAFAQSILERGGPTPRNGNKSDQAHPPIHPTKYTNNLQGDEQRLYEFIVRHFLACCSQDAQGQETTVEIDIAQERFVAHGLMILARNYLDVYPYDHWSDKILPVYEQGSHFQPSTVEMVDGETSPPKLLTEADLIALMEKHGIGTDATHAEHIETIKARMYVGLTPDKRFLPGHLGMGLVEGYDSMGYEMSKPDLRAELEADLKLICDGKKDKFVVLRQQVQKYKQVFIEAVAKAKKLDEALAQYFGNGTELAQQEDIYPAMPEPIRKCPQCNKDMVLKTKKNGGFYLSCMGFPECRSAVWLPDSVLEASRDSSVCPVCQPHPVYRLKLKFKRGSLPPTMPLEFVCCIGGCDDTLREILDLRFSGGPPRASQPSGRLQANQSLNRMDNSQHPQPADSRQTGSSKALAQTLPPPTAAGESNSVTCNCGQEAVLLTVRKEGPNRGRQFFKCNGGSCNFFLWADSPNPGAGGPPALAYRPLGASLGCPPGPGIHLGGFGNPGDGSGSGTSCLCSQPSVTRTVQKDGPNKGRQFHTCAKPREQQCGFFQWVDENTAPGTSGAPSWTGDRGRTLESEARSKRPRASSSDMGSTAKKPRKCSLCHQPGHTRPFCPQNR
TOPOIIIalpha (TRR complex);RMI1 (TRR complex);RMI2 (TRR complex), sequence (Q9H9A7 whole entry, chain 2 of 3): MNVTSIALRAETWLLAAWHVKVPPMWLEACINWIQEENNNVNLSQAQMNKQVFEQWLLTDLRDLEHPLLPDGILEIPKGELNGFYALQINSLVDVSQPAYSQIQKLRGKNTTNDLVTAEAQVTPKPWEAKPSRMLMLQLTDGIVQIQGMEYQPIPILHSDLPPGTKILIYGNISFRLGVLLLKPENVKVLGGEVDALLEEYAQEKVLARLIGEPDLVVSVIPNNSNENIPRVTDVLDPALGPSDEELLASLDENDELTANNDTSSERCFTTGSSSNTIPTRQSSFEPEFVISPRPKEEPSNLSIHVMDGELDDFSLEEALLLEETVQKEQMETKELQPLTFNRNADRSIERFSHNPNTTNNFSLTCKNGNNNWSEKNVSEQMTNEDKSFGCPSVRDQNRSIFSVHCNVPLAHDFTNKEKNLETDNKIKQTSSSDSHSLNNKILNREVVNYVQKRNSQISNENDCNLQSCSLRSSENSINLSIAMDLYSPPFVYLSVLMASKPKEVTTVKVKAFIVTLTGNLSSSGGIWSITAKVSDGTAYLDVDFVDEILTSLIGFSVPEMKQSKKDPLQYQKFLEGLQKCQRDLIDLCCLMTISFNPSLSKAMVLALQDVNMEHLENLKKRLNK
TOPOIIIalpha (TRR complex);RMI1 (TRR complex);RMI2 (TRR complex), sequence (Q96E14 whole entry, chain 3 of 3): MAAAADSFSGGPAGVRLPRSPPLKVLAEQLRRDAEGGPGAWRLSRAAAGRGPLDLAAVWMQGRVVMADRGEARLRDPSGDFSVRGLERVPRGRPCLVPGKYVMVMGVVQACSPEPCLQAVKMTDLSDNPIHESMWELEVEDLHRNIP

B1: ss54-FLU (ssDNA)
DNA: TCCTTTTGATAAGAGGTCATTTTTGCGGATGGCTTAGAGCTTAATTGCGCAACG
- Kd: 64 ± 13 nM
